B1: Merlin (Homo sapiens), P35240 (parent)
chain: MAGAIASRMSFSSLKRKQPKTFTVRIVTMDAEMEFNCEMKWKGKDLFDLVCRTLGLRETWFFGLQYTIKDTVAWLKMDKKVLDHDVSKEEPVTFHFLAKFYPENAEEELVQEITQHLFFLQVKKQILDEKIYCPPEASVLLASYAVQAKYGDYDPSVHKRGFLAQEELLPKRVINLYQMTPEMWEERITAWYAEHRGRARDEAEMEYLKIAQDLEMYGVNYFAIRNKKGTELLLGVDALGLHIYDPENRLTPKISFPWNEIRNISYSDKEFTIKPLDKKIDVFKFNSSKLRVNKLILQLCIGNHDLFMRRRKADSLEVQQMKAQAREEKARKQMERQRLAREKQMREEAERTRDELERRLLQMKEEATMANEALMRSEETADLLAEKAQITEEEAKLLAQKAAEAEQEMQRIKATAIRTEEEKRLMEQKVLEAEVLALKMAEESERRAKEADQLKQDLQEAREAERRAKQKLLEIATKPTYPPMNPIPAPLPPDIPSFNLIGDSLSFDFKDTDMKRLSMEIEKEKVEYMEKSKHLQEQLNELKTEIEALKLKERETALDILHNENSDRGGSSKHNTIKKLTLQSAKSRVAFFEEL
partner: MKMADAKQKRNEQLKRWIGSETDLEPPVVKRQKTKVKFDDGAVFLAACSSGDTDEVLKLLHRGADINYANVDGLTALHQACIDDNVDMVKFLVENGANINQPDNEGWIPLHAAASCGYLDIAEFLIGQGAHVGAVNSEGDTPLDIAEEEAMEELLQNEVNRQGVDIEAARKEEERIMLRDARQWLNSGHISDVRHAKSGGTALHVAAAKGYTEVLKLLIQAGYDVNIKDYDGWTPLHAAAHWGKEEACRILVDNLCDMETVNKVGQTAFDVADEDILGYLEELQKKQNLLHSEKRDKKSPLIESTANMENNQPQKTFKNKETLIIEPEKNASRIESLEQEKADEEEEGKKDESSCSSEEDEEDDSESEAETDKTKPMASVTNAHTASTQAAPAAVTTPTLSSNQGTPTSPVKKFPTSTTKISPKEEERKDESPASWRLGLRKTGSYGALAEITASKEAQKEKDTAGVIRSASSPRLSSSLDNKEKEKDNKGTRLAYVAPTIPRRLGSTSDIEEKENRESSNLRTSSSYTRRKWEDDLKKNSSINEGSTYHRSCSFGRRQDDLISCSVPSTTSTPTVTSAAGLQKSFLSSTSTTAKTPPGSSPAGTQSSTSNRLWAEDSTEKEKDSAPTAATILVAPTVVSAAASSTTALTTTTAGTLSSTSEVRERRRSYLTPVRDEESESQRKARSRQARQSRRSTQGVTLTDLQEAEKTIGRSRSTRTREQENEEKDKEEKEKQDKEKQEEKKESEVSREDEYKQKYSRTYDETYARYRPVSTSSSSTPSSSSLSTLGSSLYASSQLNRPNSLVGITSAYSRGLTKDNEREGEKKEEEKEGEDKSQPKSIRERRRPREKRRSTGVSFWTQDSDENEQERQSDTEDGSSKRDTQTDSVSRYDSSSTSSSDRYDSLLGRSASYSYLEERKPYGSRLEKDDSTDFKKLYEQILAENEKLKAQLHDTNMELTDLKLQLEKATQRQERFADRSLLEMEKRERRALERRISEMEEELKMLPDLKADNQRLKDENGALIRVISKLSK

The assay covers variants of B1. To be noted: with mypt1_rat Ppp1r12a.
As for MAGAIASRMSFSSLKRKQPKTFTVRIVTMDAEMEFNCEMKWKGKDLFDLVCRTLGLRETWFFGLQYTIKDTVAWLKMDKKVLDHDVSKEEPVTFHFLAKFYPENAEEELVQEITQHLFFLQVKKQILDEKIYCPPEASVLLASYAVQAKYGDYDPSVHKRGFLAQEELLPKRVINLYQMTPEMWEERITAWYAEHRGRARDEAEMEYLKIAQDLEMYGVNYFAIRNKKGTELLLGVDALGLHIYDPENRLTPKISFPWNEIRNISYSDKEFTIKPLDKKIDVFKFNSSKLRVNKLILQLCIGNHDLFMRRRKADSLEVQQMKAQAREEKARKQMERQRLAREKQMREEAERTRDELERRLLQMKEEATMANEALMRSEETADLLAEKAQITEEEAKLLAQKAAEAEQEMQRIKATAIRTEEEKRLMEQKVLEAEVLALKMAEESERRAKEADQLKQDLQEAREAERRAKQKLLEIATKPTYPPMNPIPAPLPPDIPSFNLIGDSLSFDFKDTDMKRLAMEIEKEKVEYMEKSKHLQEQLNELKTEIEALKLKERETALDILHNENSDRGGSSKHNTIKKLTLQSAKSRVAFFEEL [S518A], the “effect of a mutation on the interaction” value is reported as “decreasing interaction”.

Values taken from IntAct's records for PubMed 16885985.
